One block for each molecule: values may come before it.
Legend:
[1] = target: murein peptide ligase (Mpl) from Psychrobacter arcticus 273-4 (Psychrobacter arcticus 273-4); test: SEC; elution of the same Superdex 200 run (refractive index trace) compared with the BioRad gel filtration standard (158, 44 and 17 kDa)
[2] = target: murein peptide ligase (Mpl) from Psychrobacter arcticus 273-4 (Psychrobacter arcticus 273-4); test: SEC-MALS; SEC/SLS: 1x30 cm Superdex 200 coupled with miniDAWN static light scattering and Optilab differential refractive index detectors; 20 mM Tris-HCl pH 8.0, 150 mM sodium chloride, 0.02% sodium azide; molecular weight by ASTRA 5.1.5
[3] = target: the molecule itself; test: SEC; 100 µl of 1.3 mg of EcMpl on Superdex 200 10/300 GL; 20 mM potassium phosphate pH 7.4, 0.15 mM NaCl, 0.01% 2-mercaptoethanol; 0.5 ml/min, detection at 280 nm
purified protein [4] = substrate: CC(=O)N[C@H]1[C@@H](OP(=O)(O)OP(=O)(O)OC[C@H]2O[C@@H](n3ccc(=O)[nH]c3=O)[C@H](O)[C@@H]2O)O[C@H](CO)[C@@H](O)[C@@H]1O[C@H](C)C(=O)O; test: purified protein; assay type: biochemical, Psychrobacter arcticus; conditions: 5 mM ATP, 0.25 mM L-Ala-γ-D-Glu-meso-A2pm, 5 mM MgCl2, pH 8.4, 30 min, labelled compound
purified protein [5] = substrate: Nc1ncnc2c1ncn2[C@@H]1O[C@H](COP(=O)(O)OP(=O)(O)OP(=O)(O)O)[C@@H](O)[C@H]1O; test: purified protein; assay type: biochemical, Psychrobacter arcticus; conditions: 0.4 mM UDP-MurNAc, 0.25 mM L-Ala-γ-D-Glu-meso-A2pm, 5 mM MgCl2, pH 8.4, 30 min

stoichiometry N [1]: 4
stoichiometry N [2]: 2.09
Molecule: murein peptide ligase (Mpl) from Psychrobacter arcticus 273-4 (enzyme)

B1: Mpl from Escherichia coli (enzyme, UniProt P37773 1-457, looked up)
chain: MRIHILGICGTFMGGLAMLARQLGHEVTGSDANVYPPMSTLLEKQGIELIQGYDASQLEPQPDLVIIGNAMTRGNPCVEAVLEKNIPYMSGPQWLHDFVLRDRWVLAVAGTHGKTTTAGMATWILEQCGYKPGFVIGGVPGNFEVSAHLGESDFFVIEADEYDCAFFDKRSKFVHYCPRTLILNNLEFDHADIFDDLKAIQKQFHHLVRIVPGQGRIIWPENDINLKQTMAMGCWSEQELVGEQGHWQAKKLTTDASEWEVLLDGEKVGEVKWSLVGEHNMHNGLMAIAAARHVGVAPADAANALGSFINARRRLELRGEANGVTVYDDFAHHPTAILATLAALRGKVGGTARIIAVLEPRSNTMKMGICKDDLAPSLGRADEVFLLQPAHIPWQVAEVAEACVQPAHWSGDVDTLADMVVKTAQPGDHILVMSNGGFGGIHQKLLDGLAKKAEAAQ
notes: Mpl (murein peptide ligase, UDP-MurNAc:L-Ala-gamma-D-Glu-meso-A2pm ligase), Escherichia coli; also called EcMpl; E. coli ortholog
stoichiometry N [3]: 2

B2: PaMpl (Psychrobacter arcticus 273-4) (protein)
chain: MHIHILGICGTFMGSLALLARALGHTVTGSDANIYPPMSTQLEQAGVTIEEGYLIAHLQPAPDLVVVGNAMKRGMDVIEYMLDTGLRYTSGPQFLSEQVLQSRHVIAVAGTHGKTTTTTMLAWILHYAGIDAGFLIGGVPLVNTTDTNLQQVFAHSSYLGTEKDDSDNSVNTGYFVIEADEYDSAFFDKRSKFVHYRPRTAILNNLEFDHADIFADLDAIQTQFHHMVRMIPSTGKIIMPAATISLEDTLAKGVWTPIWRTSVIDSTISSVRREDSPLENSQAENSSDWQAELISADGSQFTVSFNDNKEATALVNWSMSGLHNVNNALVAIAAAYNIGVSVKTACAALSAFAGIKRRMELIGDVNDILVFDDFAHHPTAITTTLDGAKKKLADRRLWAIIEPRSNTMKMGIHQDSLAQSATLADHTLWYEPTGLEWGLKEVIDNATIANPSIGSQQVLSSVDDIIKHICTHAKAGDAIVIMSNGGFEGIHQRLLTALGNIVAIL
notes: full length, 505 residues; N-terminal His6 tag (…) kept for kinetics; E. coli MLD2502 (delta mpl); 57,187 Da with tag; dimer in solution by light scattering
Km (purified protein [4]): 1000 ± 130 µM
kcat (purified protein [4]): 4.33 ± 0.333 s⁻¹
kcat/Km (purified protein [4]): 4330 ± 650 M⁻¹ s⁻¹
Km (purified protein [5]): 110 ± 50 µM
kcat (purified protein [5]): 4.33 ± 0.333 s⁻¹
kcat/Km (purified protein [5]): 40000 ± 18300 M⁻¹ s⁻¹

Reference: paper PMC3060825, “Structure and Function of the First Full-Length Murein Peptide Ligase (Mpl) Cell Wall Recycling Protein” (PLoS ONE, 2011)
